Measured values published in patent US20250281536A1 (published 2025).

Target: T1, Human CD4-Fc (human, UniProt P01730 26-390)
T1 construct: not shown: Fc
Test: BLI; human CD4-Fc captured; binder-mouse Fc homodimer at 125 nM

B1: Binder 279 expressed as homodimer with mouse Fc (Fc fusion)
chain: QVQLVQSGAEVKKPGASVKVSCKASGGTFSSYAISWVRQAPGQGLEWMGWINPNSGGTNYAQKFQGRVTMTRDTSTSTVYMELSSLRSEDTAVYYCARDGYSGSYSDWGQGTLVTVSSGGGGSGGGGSGGGGSDIVMTQSPDSLAVSLGERATINCKSSQSVLSSSYNKNYLAWYQQKPGQPPKLLIYWASTRESGVPDRFSGSGSGTDFTLTISSLQAEDVAVYYCQQYYSTPWTFGQGTKVEIK
notes: not shown: mouse Fc
- Kd: 5 nM
- koff: 0.00021 s⁻¹
- kon: 41700 M⁻¹ s⁻¹
